# Laboratory results as given in US20070299013.
# Test system: pentapeptide DYDYQ (Asp695-Tyr696-Asp697-Tyr698-Gln699 of human factor Va heavy chain)
substance,measurement,value
human thrombin,"activation of factor V by thrombin (cleavage at Arg709), SDS-PAGE and immunoblot, thrombin preincubated with 100 µM peptide",the pentapeptide is a potent inhibitor of factor V activation by thrombin
